Biological target: monkey Mpl (on BaF3-monkey Mpl cells) (monkey)

hTPO (ligand)
EC50 (read off the curve) [B) BaF-monkey Mpl]: 0.01 nM

— patent US20090214535A1
